Values quoted from earlier work as cited in doi:10.1101/2022.08.17.503475.

Target: Glu14 (UniProt position 14, GAILAEVIGTT)
Assay: NMR
Settings: TPP+-bound; alternating access in slow exchange throughout the tested pH range

In the case of “EmrE (multidrug transporter EmrE, small multidrug resistance family) (Escherichia coli)”, the pKa is listed as 6.8 ± 0.1.
